Assay [1] has as its target T1, human IGFBP7 recombinant protein (UniProt Q16270 27-282, biotinylated with EZ-LINK NHS-PEG4 biotin in the BLI assays (sites not given)).
T1 chain: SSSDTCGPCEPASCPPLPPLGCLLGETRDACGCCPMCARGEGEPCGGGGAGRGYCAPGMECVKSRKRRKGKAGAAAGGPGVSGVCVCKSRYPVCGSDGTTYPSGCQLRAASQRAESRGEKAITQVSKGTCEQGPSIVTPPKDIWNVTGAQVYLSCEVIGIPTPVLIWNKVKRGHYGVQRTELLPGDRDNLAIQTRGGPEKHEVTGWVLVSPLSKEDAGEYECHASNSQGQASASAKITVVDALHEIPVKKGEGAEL
The assay is described as follows: BLI.

Assay [2] has as its target T2, mouse IGFBP7 recombinant protein (mouse, UniProt Q61581 26-281, biotinylated with EZ-LINK NHS-PEG4 biotin in the BLI assays (sites not given)).
T2 chain: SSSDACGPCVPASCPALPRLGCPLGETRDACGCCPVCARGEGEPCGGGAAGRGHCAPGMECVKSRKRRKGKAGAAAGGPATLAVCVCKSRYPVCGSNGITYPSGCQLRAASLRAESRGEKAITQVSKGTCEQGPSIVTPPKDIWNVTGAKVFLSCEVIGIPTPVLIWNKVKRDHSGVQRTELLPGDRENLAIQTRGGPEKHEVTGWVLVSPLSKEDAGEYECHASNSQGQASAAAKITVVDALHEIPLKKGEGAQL
The assay is described as follows: BLI.

Assay [3] concerns the target T3, His-tagged human IGFBP7 recombinant protein (human, UniProt Q16270 27-282).
T3 construct: not shown: His tag
T3 sequence: T1 chain
As to the kind of experiment: flow cytometry blockade assay: nanobody 50 ug/mL pre-incubated with His-tagged human IGFBP7 1 ug/mL, then human CD93 CHO cells (FIG. 14). The method, then:
Anti-IGFBP7 nanobodies and nanobody-Fc fusions (50 μg/mL) generated in previous examples was incubated with His-tagged human IGFBP7 recombinant protein (1 μg/mL) for 30 minutes in 4° C. Human CD93 expressing CHO cells (1×10⁵ per well) were treated the mixture for 30 minutes at 4° C. Then the cells were washed with FACS buffer and incubated with anti-IGFBP7 monoclonal rabbit antibody (Sino Biological Inc, Catalog #13100-R003) at 1 μg/mL for 30 minutes in 4° C. After incubation, the cells were washed with FACS buffer and incubated with PE-conjugated anti-rabbit IgG antibody ([…]) for 30 minutes in 4° C. After washing with FACS buffer twice, the samples were analyzed and data acquired in NovoCyte Flow.

Assay [4] deals with T4, human IGFBP7 recombinant protein (human, UniProt Q16270 27-282, biotinylated with EZ-LINK NHS-PEG4 biotin in the BLI assays (sites not given)).
T4 construct: Soluble protein used for ELISA coating and, biotinylated, on streptavidin biosensors (Octet); also called hIGFBP7; biotinylated IGFBP7 protein
T4 sequence: T1 chain
As to the kind of experiment: BLI (Octet QKe), biotinylated IGFBP7 on streptavidin biosensors (FIG. 9). The method, then:
(§1) The binding affinity of anti-IGFBP7 nanobody Fc-fusion constructs (e.g., VHH-Fc-fusion constructs) were determined with bio-layer interferometry (BLI) using Octet QKe (Fortebio). Human, mouse, and cynomolgus IGFBP7 were biotinylated using EZ-LINK NHS-PEG4 biotin (Thermo Fisher Scientific). Streptavidin biosensors (ForteBio) were used to load biotinylated IGFBP7 protein (300 seconds in 5 μg/mL). Baseline was stabilized for 60 seconds in 1× kinetics buffer (ForteBio) before anti-IGFBP7 Fc-fucion proteins (serial dilution) were allowed to associate for 300 seconds with captured hIGFBP7 or mIGFBP7. Then the sensors were dissociated in 1× kinetics buffer for 600 seconds. Data analysis was performed on ForteBio Data Analysis HT 11.1 software.

For assay [5], the target named is T5, cynomolgus IGFBP7 recombinant protein (cynomolgus).
T5 chain: T1 chain with S13A, E215D
As to the kind of experiment: BLI.

Assay [6] has as its target T6, mouse IGFBP7 recombinant protein (mouse, UniProt Q61581 26-281, limits assumed, biotinylated with EZ-LINK NHS-PEG4 biotin in the BLI assays (sites not given)).
T6 construct: Soluble protein in ELISA and BLI; also called mIGFBP7
T6 sequence (looked up): T2 chain
As to the kind of experiment: BLI (Octet QKe), biotinylated IGFBP7 on streptavidin biosensors (FIG. 10). The method, then:
as §1

The target in assay [7] is T2, mouse IGFBP7 recombinant protein. As to the kind of experiment: BLI.
Assay [8] deals with T1, human IGFBP7 recombinant protein. The assay is described as follows: BLI.
Assay [9] has the same target. The assay is described as follows: BLI.
The target in assay [10] is T2, mouse IGFBP7 recombinant protein. The assay is described as follows: BLI.
In assay [11] the target is T7, mouse IGFBP7 displayed on cells (HEK293T or CHO-K1) (mouse, UniProt Q61581 26-281).
T7 construct: whole, on cells;domain: CD80 transmembrane domain; also called mIGFBP7; mIGFBP7-HEK cells; not shown: linker; CD80 transmembrane domain
T7 sequence (looked up): T2 chain
The assay is described as follows: flow cytometry on mouse IGFBP7 displaying HEK293T cells, nanobody 10 ug/ml, APC anti-HIS detection. Here is the method: (§2) Human IGFBP7 and mouse IGFBP7 displaying HEK293T cells were detached by incubation with TrypLE reagents (Thermos Fisher), which preserves the integrity of IGFBP7 on the cell surface. Then the cells were incubated with anti-IGFBP7 nanobodies at 10 μg/ml for 30 minutes in 4° C. After washing by FACS buffer, the cells were incubated with APC conjugated anti-HIS antibodies (Biolegend) for 30 minutes in 4° C. After washing by FACS buffer twice, the samples were acquired in NovoCyte Flow Cytometer and analyzed by NovoExpress software.

In assay [12] the target is T8, human IGFBP7 displayed on HEK293T cells (human, UniProt Q16270 27-282).
T8 construct: domain: CD80 transmembrane domain; signal peptide stated as residues 1-26; also called hIGFBP7; hIGFBP7-HEK cells; not shown: linker; CD80 transmembrane domain
T8 sequence: T1 chain
As to the kind of experiment: flow cytometry on human IGFBP7 displaying HEK293T cells, nanobody 10 ug/ml, APC anti-HIS detection. The method, then: as §2

Assay [13] concerns the target T6, mouse IGFBP7 recombinant protein. As to the kind of experiment: ELISA.
Assay [14] addresses T4, human IGFBP7 recombinant protein. As to the kind of experiment: ELISA.

Substitutions are numbered along the chain they refer to. Where two headings read alike, the source gives them in different places.

B1: A4-mIgG2a nanobody Fc-fusion (Fc fusion)
chain: VQLQESGGGLVQPGGSLRLSCAASGTFTINTYLWYRQPPGKQREFVAAITRGGSINYADSVKGRFTISRDNAKKTVYLQMNSLKPEDTAVYVCNIKAHPNPWGFDNDYWGQGTQVTVSS
In the case of B1, the Kd in assay [1] was found to be 1.2 nM; in assay [2], 0.0078 nM.

B2: anti-IGFBP7 nanobody A03 (VHH)
VHH: B1 chain with P13A, T28S, R51S
notes: Llama nanobody expressed in E. coli as His6-tagged protein; also called A3; not shown: His6 tag
Turning to B2, in assay [3], the “percent blocking of the CD93-IGFBP7 interaction” value (shortened to “percent blocking”) was at least 50%.

B3: anti-IGFBP7 nanobody A04 (VHH)
VHH: B1 chain
notes: Llama nanobody expressed in E. coli as His6-tagged protein; also called A4; A4 VHH; not shown: His6 tag
For B3, the “percent blocking” value in assay [3] is at least 50%.

B4: D4-mIgG2a nanobody Fc-fusion (Fc fusion)
chain: VQLQESGGGLVQTGGSLRLSCAASGRSFTFSSYAMGWFRHAPGKEREFLTAITWSGDYTYYTDSVKGRSTISRDNAKNTVYLQLNNLKPEDTAVYYCAAKFSQVSAFFATVSEYEYWGQGTQVTVSS
notes: VHH fused with mIgG2a Fc fragment, expressed in Expi293 cells; also called monospecific D4-mIgG2a; not shown: mouse IgG2a Fc fragment (mIgG2a Fc)
For B4, the binding result in assay [4] and in [6] was “binds” each time. Also, the Kd in assay [1] turned out to be 1.16 nM; in assay [5] it was 1.84 nM; in [2], 12.1 nM; in assay [7], 10.2 nM; in [8] it was 1.22 nM; in [9] it was 1.22 nM. Further, the Kd in [10] came to 10.2 nM.

B5: anti-IGFBP7 nanobody D04 (VHH)
VHH: B4 chain
notes: Llama nanobody expressed in E. coli as His6-tagged protein; also called D4; D4 VHH; not shown: His6 tag
As to B5, the binding result in assay [11], in assay [12], in assay [13] and in assay [14] was “binds” in each case.

B6: A1-mIgG1 nanobody Fc-fusion (Fc fusion)
chain: VQLQESGGGLVQAGGSLRLSCAASGSLFAIDKWGWYRQVAGNERELVAWRYSPVSINYGDSVKGRFTVSGDSSRKRVYLQMNSLKPDDTAVYRCAAVISGAWYWGQGTQVTVSS
notes: VHH fused with mIgG1 Fc fragment, expressed in Expi293 cells; also called monospecific A1-mIgG1; not shown: mouse IgG1 Fc fragment (mIgG1 Fc)
For the molecule B6, the binding result in assay [4] and in [6] was “binds” each time. Moreover, the dissociation constant (Kd) in assay [5] was 3.19 nM; in assay [7], 25.8 nM; in assay [8], 3.82 nM; in [9], 3.82 nM; in assay [10] it was 25.8 nM.

B7: anti-IGFBP7 nanobody A01 (VHH)
VHH: B6 chain
notes: Llama nanobody expressed in E. coli as His6-tagged protein; also called A1; A1 VHH; not shown: His6 tag
Take B7: the binding result in assay [11], in [12], in [13] and in [14] was “binds” each time.

B8: bispecific anti-IGFBP7 nanobody Fc-fusion construct A1D4-mIgG2a (bispecific antibody)
chain: VQLQESGGGLVQAGGSLRLSCAASGSLFAIDKWGWYRQVAGNERELVAWRYSPVSINYGDSVKGRFTVSGDSSRKRVYLQMNSLKPDDTAVYRCAAVISGAWYWGQGTQVTVSSVQLQESGGGLVQTGGSLRLSCAASGRSFTFSSYAMGWFRHAPGKEREFLTAITWSGDYTYYTDSVKGRSTISRDNAKNTVYLQLNNLKPEDTAVYYCAAKFSQVSAFFATVSEYEYWGQGTQVTVSS
As for B8, the Kd was found to be 0.939 nM in assay [5]; 1.07 nM in [7]; 0.902 nM in assay [8]; 0.902 nM in assay [9]; 1.07 nM in assay [10].

B9: A11 mIgG2a (antibody, V domains shown)
VH: VQLQESEGGWSGGGSGSGDFDYEKMANANNGAMTDNADAGKQREFVAAITSGGSINYADSVKGRFTISRDNTKKTVYLQMNSLKPEDTAVYVCNIKAHPNPWGFDNDYWGQGTQVTVSS
Consider B9, for which the Kd in [1] amounted to 0.0129 nM; in assay [2] it was 0.0177 nM.

B10: anti-IGFBP7 nanobody A07 (VHH)
VHH: B9 VH with D21G, E23D, N29I, R69T, T72A, Q114P, V115A, V117A
notes: Llama nanobody expressed in E. coli as His6-tagged protein; also called A7; not shown: His6 tag
As to B10, the “percent blocking” value in [3] is at least 50%.

B11: anti-IGFBP7 nanobody A11 (VHH)
VHH: B9 VH
notes: Llama nanobody expressed in E. coli as His6-tagged protein; also called A11 VHH; not shown: His6 tag
Consider B11, for which the “percent blocking” value in assay [3] was at least 50%.

B12: anti-IGFBP7 nanobody F12 (VHH)
VHH: VQLQESGGGLVQPGGSLRLSCAASGFTFSINTYLWYRQPPGKQREFVAAITSGGSINYADSVKGRFTISRDNAKKTVYLQMNSLKPEDTAVYVCNIKAHPNPWGFDNDYWGQGTQVTVSS
notes: Llama nanobody expressed in E. coli as His6-tagged protein; not shown: His6 tag
Regarding B12, the binding result in [12] is recorded as “binds”.

The record behind these values is patent publication US20240150466A1 (DYNAMICURE BIOTECHNOLOGY, published 2024).
